Measured values from IntAct's records for PubMed 16099979.

B1: Protein FD (Arabidopsis thaliana (Mouse-ear cress)), Q84JK2 (parent)
chain: MLSSAKHQRNHRLSATNKNQTLTKVSSISSSSPSSSSSSSSTSSSSPLPSQDSQAQKRSLVTMEEVWNDINLASIHHLNRHSPHPQHNHEPRFRGQNHHNQNPNSIFQDFLKGSLNQEPAPTSQTTGSAPNGDSTTVTVLYSSPFPPPATVLSLNSGAGFEFLDNQDPLVTSNSNLHTHHHLSNAHAFNTSFEALVPSSSFGKKRGQDSNEGSGNRRHKRMIKNRESAARSRARKQAYTNELELEVAHLQAENARLKRQQDQLKMAAAIQQPKKNTLQRSSTAPF

Variants of: B1
Conditions: with ft_arath FT

Variant	effect of a mutation on the interaction
MLSSAKHQRNHRLSATNKNQTLTKVSSISSSSPSSSSSSSSTSSSSPLPSQDSQAQKRSLVTMEEVWNDINLASIHHLNRHSPHPQHNHEPRFRGQNHHNQNPNSIFQDFLKGSLNQEPAPTSQTTGSAPNGDSTTVTVLYSSPFPPPATVLSLNSGAGFEFLDNQDPLVTSNSNLHTHHHLSNAHAFNTSFEALVPSSSFGKKRGQDSNEGSGNRRHKRMIKNRESAARSRARKQAYTNELELEVAHLQAENARLKRQQDQLKMAAAIQQPKKNTLQRSSAAPF [T282A]	decreasing interaction
MLSSAKHQRNHRLSATNKNQTLTKVSSISSSSPSSSSSSSSTSSSSPLPSQDSQAQKRSLVTMEEVWNDINLASIHHLNRHSPHPQHNHEPRFRGQNHHNQNPNSIFQDFLKGSLNQEPAPTSQTTGSAPNGDSTTVTVLYSSPFPPPATVLSLNSGAGFEFLDNQDPLVTSNSNLHTHHHLSNAHAFNTSFEALVPSSSFGKKRGQDSNEGSGNRRHKRMIKNRESAARSRARKQAYTNELELEVAHLQAENARLKRQQDQLKMAAAIQQPKKNTLQRSSSAPF [T282S]	decreasing interaction
